Measured values as given in US20250099622A1, “COMPOSITIONS AND METHODS FOR EXPRESSING THERAPEUTICS” (priority 2022, published 2025).

T1: Human NPR-B (Homo sapiens, UniProt P20594)
T1 construct: purchased R&D system
T1 sequence (P20594 23-458 limits assumed): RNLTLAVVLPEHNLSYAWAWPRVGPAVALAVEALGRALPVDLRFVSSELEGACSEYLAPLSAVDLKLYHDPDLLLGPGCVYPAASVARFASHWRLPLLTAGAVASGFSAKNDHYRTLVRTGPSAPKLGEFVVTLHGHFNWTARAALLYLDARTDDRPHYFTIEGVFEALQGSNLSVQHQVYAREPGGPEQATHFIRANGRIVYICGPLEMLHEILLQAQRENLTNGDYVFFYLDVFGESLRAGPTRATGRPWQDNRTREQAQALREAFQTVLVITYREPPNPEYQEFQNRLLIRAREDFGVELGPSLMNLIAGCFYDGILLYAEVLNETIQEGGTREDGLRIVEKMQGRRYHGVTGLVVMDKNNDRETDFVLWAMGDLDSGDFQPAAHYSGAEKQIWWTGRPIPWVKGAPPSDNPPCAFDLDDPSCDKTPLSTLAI

T2: NPR-B on NIH/3T3 cells (NPR-B receptor positive cell line) (UniProt Q6VVW5 17-1047, limits assumed)
T2 sequence (looked up): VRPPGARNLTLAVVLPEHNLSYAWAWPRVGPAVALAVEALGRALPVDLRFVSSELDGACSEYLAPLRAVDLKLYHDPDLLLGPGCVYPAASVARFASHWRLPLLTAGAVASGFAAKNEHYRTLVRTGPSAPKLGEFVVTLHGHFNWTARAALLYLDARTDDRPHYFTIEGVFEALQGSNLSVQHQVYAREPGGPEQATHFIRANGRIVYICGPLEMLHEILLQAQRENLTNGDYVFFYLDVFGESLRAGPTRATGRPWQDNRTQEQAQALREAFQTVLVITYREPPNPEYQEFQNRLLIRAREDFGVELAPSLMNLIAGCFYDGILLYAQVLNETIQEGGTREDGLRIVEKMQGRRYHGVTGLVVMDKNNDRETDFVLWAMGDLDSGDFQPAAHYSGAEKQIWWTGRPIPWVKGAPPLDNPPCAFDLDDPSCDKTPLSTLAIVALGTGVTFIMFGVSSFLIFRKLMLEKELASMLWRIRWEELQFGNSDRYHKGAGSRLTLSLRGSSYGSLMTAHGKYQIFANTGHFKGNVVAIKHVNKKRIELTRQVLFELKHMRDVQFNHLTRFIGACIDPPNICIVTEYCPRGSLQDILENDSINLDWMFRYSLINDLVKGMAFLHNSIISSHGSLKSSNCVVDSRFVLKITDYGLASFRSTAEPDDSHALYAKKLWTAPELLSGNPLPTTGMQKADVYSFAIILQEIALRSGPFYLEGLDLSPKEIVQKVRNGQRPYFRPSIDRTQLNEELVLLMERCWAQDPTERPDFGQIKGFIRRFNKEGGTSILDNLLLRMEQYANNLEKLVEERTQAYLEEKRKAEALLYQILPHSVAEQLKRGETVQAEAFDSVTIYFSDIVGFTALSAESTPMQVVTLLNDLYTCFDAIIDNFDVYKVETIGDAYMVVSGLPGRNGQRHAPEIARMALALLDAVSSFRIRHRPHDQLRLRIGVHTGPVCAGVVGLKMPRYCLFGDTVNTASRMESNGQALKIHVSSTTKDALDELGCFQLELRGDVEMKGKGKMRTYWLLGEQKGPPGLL

T3: Human NPR-B (R&D system) (human, UniProt P20594 23-458, limits assumed)
T3 construct: Bought protein immobilised on the Biacore chip; also called NBR-B; natriuretic peptide receptor B
T3 sequence (looked up): T1 sequence (P20594 23-458 limits assumed)


Key:
Human NPR-B = target: T1, Human NPR-B; experiment: Biacore SPR kinetic affinity binding to immobilized NPR-B
Procedure: The biological function of these purified protein was assayed for their stimulation of production of cGMP, using NPR-B receptor positive cell line, NIH/3T3 and NPR-B negative cell line HEK293 cells. The determination of cGMP was assay by ELISA using commercial CNP as standard curves. […] Surface preparation. NBR-B was immobilized at different levels in three flow cells via standard amine coupling, leaving Fc 1 unmodified to serve as a reference. All surface plasmon resonance (SPR) analysis was performed on a BIAcore 3000 system using series CM5 sensor chips. Data processing and analysis were performed using BIAevaluation software. All sensorgrams were double referenced by subtracting the response on a reference flow cell and a blank sample. Human NPR-B (R&D system) was covalently attached to a CM5 chip via amine coupling. A surface density of 6600 RU was used for measurements with natriuretic peptides Sequential injections of CNP (0.5-8 nM) were performed at a flow rate of […] (300 s for each), followed by a dissociation time of 900 s. […] Kinetic parameters were calculated assuming a simple 1:1 (Langmuir) binding. […] All SPR analysis was performed on a BIAcore 3000 system using series CM5 sensor chips. Data processing and analysis were performed using BIAevaluation software. All sensorgrams were double referenced by subtracting the response on a reference flow cell and a blank sample. Human NPR-B (R&D system) was covalently attached to a CM5 chip via amine coupling. A surface density of 3100 RU was used for measurements with natriuretic peptides Sequential injections of AMI263 (FC4-CNP) (0.125-2 nM) were performed at a flow rate of […] (300 s for each), followed by a dissociation time of 900 s. […] Kinetic parameters were calculated assuming a simple 1:1 (Langmuir) binding. […] All SPR analysis was performed on a BIAcore 3000 system using series CM5 sensor chips. Data processing and analysis were performed using BIAevaluation software. All sensorgrams were double referenced by subtracting the response on a reference flow cell and a blank sample. Human NPR-B (R&D system) was covalently attached to a CM5 chip via amine coupling. […] Kinetic parameters were calculated assuming a simple 1:1 (Langmuir) binding. […] All SPR analysis was performed on a BIAcore 3000 system using series CM5 sensor chips. Data processing and analysis were performed using BIAevaluation software. All sensorgrams were double referenced by subtracting the response on a reference flow cell and a blank sample. Human NPR-B (R&D system) was covalently attached to a CM5 chip via amine coupling. A surface density of 3100 RU was used for measurements with natriuretic peptides Sequential injections of AMI263 (FC4-CNP) (0.5-300 nM) were performed at a flow rate of […] (300 s for each), followed by a dissociation time of 900 s. […] Kinetic parameters were calculated assuming a simple 1:1 (Langmuir) binding. […] All SPR analysis was performed on a BIAcore 3000 system using series CM5 sensor chips. Data processing and analysis were performed using BIAevaluation software. All sensorgrams were double referenced by subtracting the response on a reference flow cell and a blank sample. Human NPR-B (R&D system) was covalently attached to a CM5 chip via amine coupling.

HEK293 cells = experiment: CNP-Fc ELISA of supernatant of AAV-transduced HEK293 cells; assay type: cell-based, Human; conditions: CNP-Fc in HEK293 supernatant 5 days after transduction with 100,000 MOI of AAV2 N54 vector
Procedure: C-type natriuretic peptide (CNP) has two isoforms, CNP-22 and CNP-53. Example 2 illustrates that CNP-36 fused with Fe increased the half-life of the CNP and also facilitated in purification and ELISA detection when compared to native (unfused) CNP. Transduction and CNP-Fc expression experiments were performed with three AAV vectors (AMI061, AMI087 and AMI0488). FIG. 1A is the pictorial depiction of the three vectors. FIGS. 1B-F illustrate additional vectors that can encode the CNP or the CNP fusion protein. Enzyme-linked immunoassay (ELISA) was developed for quantifying CNP-Fc fusion proteins in cell culture supernatants. The ELISA assay was used to quantify CNP-Fc expressed in HEK293 cells, human chondrocytes (HCH) cells, and human skeletal muscle cells (hSkMC) upon transduction with one of the three AAV constructs described herein.
Buffer and substrate. Coating buffer: 3.7 g sodium bicarbonate, 0.64 g sodium carbonate in 1 L of Milli Q water, pH 9.6. Stored at RT; Blocking buffer: Commercial Casein blocking buffer in PBS+ added 0.1% Tween20. Stored at 4° C.; Standard diluent: same as blocking buffer; Wash buffer: 1×PBS with 0.1% tween 20 (30 days expiry from date of manufacture); Coating Antibody (Ab): Human CNP Antibody (monoclonal), coating concentration was 2 μg/mL; Detection Ab: Goat pAb anti-human Fc. Diluted up to 1:20,000 final dilution in well. Stored at 4° C.; HRP: Streptavidin-HRP stock of 1 mg/mL, diluted up to 1:10,000. Stored at 4° C.; Substrate: TMB. Stored at 4° C.; and Stop solution: 2 N HCl. Stored at ambient temperature.
• 1. Coat 96-well plate with 2 μg/mL anti-CNP antibody final concentration per well in the coating buffer with a 50 μL volume and cover the plate with sealing cover. Put the plate at 4° C. overnight. • 2. Next day, remove the plate, wash thrice with wash buffer and tap the plate on the paper towel to remove excess solution. • 3. Add 300 μL of blocking buffer to each well using multichannel pipette. […] Add 50 μL stop solution and read plate at 450 nm with 600 as reference within 15 min. […]

[1] = target: T2, NPR-B on NIH/3T3 cells (NPR-B receptor …); experiment: cell-based or functional assay
[2] = target: T2, NPR-B on NIH/3T3 cells (NPR-B receptor …); experiment: cell-based or functional assay; remark: listed apart in the source
Human NPR-B (R&D system) [3] = target: T3, Human NPR-B (R&D system); experiment: SPR (Biacore 3000), human NPR-B amine-coupled to CM5 chip, single-cycle kinetics, 1:1 Langmuir fit
Procedure: Kinetic parameters were calculated assuming a simple 1:1 (Langmuir) binding. […] All SPR analysis was performed on a BIAcore 3000 system using series CM5 sensor chips. Data processing and analysis were performed using BIAevaluation software. All sensorgrams were double referenced by subtracting the response on a reference flow cell and a blank sample. Human NPR-B (R&D system) was covalently attached to a CM5 chip via amine coupling. […] Kinetic parameters were calculated assuming a simple 1:1 (Langmuir) binding. […] All SPR analysis was performed on a BIAcore 3000 system using series CM5 sensor chips. Data processing and analysis were performed using BIAevaluation software. All sensorgrams were double referenced by subtracting the response on a reference flow cell and a blank sample. Human NPR-B (R&D system) was covalently attached to a CM5 chip via amine coupling. […] Kinetic parameters were calculated assuming a simple 1:1 (Langmuir) binding. […] All SPR analysis was performed on a BIAcore 3000 system using series CM5 sensor chips. Data processing and analysis were performed using BIAevaluation software. All sensorgrams were double referenced by subtracting the response on a reference flow cell and a blank sample. Human NPR-B (R&D system) was covalently attached to a CM5 chip via amine coupling.

Human NPR-B (R&D system) [4] = target: T3, Human NPR-B (R&D system); experiment: SPR (Biacore 3000), FIG. 7C, single-cycle kinetics, NPR-B at 6600 RU on CM5, CNP 0.5-8 nM; differs from Table 32
Procedure: Kinetic parameters were calculated assuming a simple 1:1 (Langmuir) binding. […] All SPR analysis was performed on a BIAcore 3000 system using series CM5 sensor chips. Data processing and analysis were performed using BIAevaluation software. All sensorgrams were double referenced by subtracting the response on a reference flow cell and a blank sample. Human NPR-B (R&D system) was covalently attached to a CM5 chip via amine coupling. […] Kinetic parameters were calculated assuming a simple 1:1 (Langmuir) binding. […] All SPR analysis was performed on a BIAcore 3000 system using series CM5 sensor chips. Data processing and analysis were performed using BIAevaluation software. All sensorgrams were double referenced by subtracting the response on a reference flow cell and a blank sample. Human NPR-B (R&D system) was covalently attached to a CM5 chip via amine coupling. […] Kinetic parameters were calculated assuming a simple 1:1 (Langmuir) binding. […] All SPR analysis was performed on a BIAcore 3000 system using series CM5 sensor chips.

Molecule | ka (Human NPR-B; (FIG. 7C-7I)) | kd (Human NPR-B; (FIG. 7C-7I)) | ka (Human NPR-B; Table 32 summary of affinity) | kd (Human NPR-B; Table 32 summary of affinity) | Concentration (HEK293 cells) [µg/mL] | EC50 (cGMP production, table 'EC50 NIH3T3 cells', row CNP-22) [1] [nM] | EC50 (cGMP production, drawn table, row CNP-22) [2] [nM] | EC50 (read off the curve), cGMP production [2] [nM] | Kd (Human NPR-B (R&D system) [3]) [nM] | Kd (Human NPR-B (R&D system) [4]) [nM] | kon (Human NPR-B (R&D system) [4]) [M⁻¹ s⁻¹]
AMI087: purified CNP-Fc fusion protein CNP36-(G4S)4-Fc1, SEQ ID NO: 132 | 3.65E3 | 1.53E-3 | 3.65E+03 | 1.53E−03 | 33 |  |  |  |  |  | 
GLSKGCFGLKLDRIGSMSGLGC (also called C-type natriuretic peptide) [CNP-22] |  |  |  |  |  | 11.8 | 11.8 | ~10 | 0.0346 | 0.0363 | 1.31e+07
